B1: Pistol ribozyme (parent)
chain: GGGUCGUUGUUCCAUAAUCGCGUGGAUAUGGCACGCAAGUUUCUACCGGGCACCGUAAAUGUCCGACUGGAGCCGUUCGGGCGGCUAUAAACAGACCUCAGGCCCGAAGCGUGGCGGCACCUGCCGCCGGUGGUAAAAAAGAUCGGAAGAGCACACGUCU

Variants of: B1
Test: aptazyme ON/OFF ratio, guanine; higher = stronger switching; co-transcriptional cleavage with and without guanine

| Variant | aptazyme ON/OFF ratio |
| --- | --- |
| GGGUCGUCGGCUUAUAAUCGCGUGGAUAUGGCACGCAAGUUUCUACCGGGCACCGUAAAUGUCCGACUGGAGCCGUUCGGGCGGCUAUAAACAGACCUCAGGCCCGAAGCGUGGCGGCACCUGCCGCCGGUGGUAAAAAAGAUCGGAAGAGCACACGUCU | 1.28 |
| GGGUCGUCGGCUGAUAAUCGCGUGGAUAUGGCACGCAAGUUUCUACCGGGCACCGUAAAUGUCCGACUGGAGCCGUUCGGGCGGCUAUAAACAGACCUCAGGCCCGAAGCGUGGCGGCACCUGCCGCCGGUGGUAAAAAAGAUCGGAAGAGCACACGUCU | 1.19 |
| GGGUCGUCGGCUAAUAAUCGCGUGGAUAUGGCACGCAAGUUUCUACCGGGCACCGUAAAUGUCCGACUGGAGCCGUUCGGGCGGCUAUAAACAGACCUCAGGCCCGAAGCGUGGCGGCACCUGCCGCCGGUGGUAAAAAAGAUCGGAAGAGCACACGUCU | 1.26 |
| GGGUCGUCGGGAGAUAAUCGCGUGGAUAUGGCACGCAAGUUUCUACCGGGCACCGUAAAUGUCCGACUGGAGCCGUUCGGGCGGCUAUAAACAGACCUCAGGCCCGAAGCGUGGCGGCACCUGCCGCCGGUGGUAAAAAAGAUCGGAAGAGCACACGUCU | 1.09 |
| GGGUCGUCGGGAAAUAAUCGCGUGGAUAUGGCACGCAAGUUUCUACCGGGCACCGUAAAUGUCCGACUGGAGCCGUUCGGGCGGCUAUAAACAGACCUCAGGCCCGAAGCGUGGCGGCACCUGCCGCCGGUGGUAAAAAAGAUCGGAAGAGCACACGUCU | 1.11 |
| GGGUCGUCGGCAUAUAAUCGCGUGGAUAUGGCACGCAAGUUUCUACCGGGCACCGUAAAUGUCCGACUGGAGCCGUUCGGGCGGCUAUAAACAGACCUCAGGCCCGAAGCGUGGCGGCACCUGCCGCCGGUGGUAAAAAAGAUCGGAAGAGCACACGUCU | 1.32 |
| GGGUCGUCGGCAGAUAAUCGCGUGGAUAUGGCACGCAAGUUUCUACCGGGCACCGUAAAUGUCCGACUGGAGCCGUUCGGGCGGCUAUAAACAGACCUCAGGCCCGAAGCGUGGCGGCACCUGCCGCCGGUGGUAAAAAAGAUCGGAAGAGCACACGUCU | 1.11 |
| GGGUCGUCGGCAAAUAAUCGCGUGGAUAUGGCACGCAAGUUUCUACCGGGCACCGUAAAUGUCCGACUGGAGCCGUUCGGGCGGCUAUAAACAGACCUCAGGCCCGAAGCGUGGCGGCACCUGCCGCCGGUGGUAAAAAAGAUCGGAAGAGCACACGUCU | 1.24 |
| GGGUCGUCGGCGUAUAAUCGCGUGGAUAUGGCACGCAAGUUUCUACCGGGCACCGUAAAUGUCCGACUGGAGCCGUUCGGGCGGCUAUAAACAGACCUCAGGCCCGAAGCGUGGCGGCACCUGCCGCCGGUGGUAAAAAAGAUCGGAAGAGCACACGUCU | 1.32 |
| GGGUCGUCGGCGAAUAAUCGCGUGGAUAUGGCACGCAAGUUUCUACCGGGCACCGUAAAUGUCCGACUGGAGCCGUUCGGGCGGCUAUAAACAGACCUCAGGCCCGAAGCGUGGCGGCACCUGCCGCCGGUGGUAAAAAAGAUCGGAAGAGCACACGUCU | 1.18 |
| GGGUCGUCGGCGGAUAAUCGCGUGGAUAUGGCACGCAAGUUUCUACCGGGCACCGUAAAUGUCCGACUGGAGCCGUUCGGGCGGCUAUAAACAGACCUCAGGCCCGAAGCGUGGCGGCACCUGCCGCCGGUGGUAAAAAAGAUCGGAAGAGCACACGUCU | 1.17 |
| GGGUCGUCGGCUCAUAAUCGCGUGGAUAUGGCACGCAAGUUUCUACCGGGCACCGUAAAUGUCCGACUGGAGCCGUUCGGGCGGCUAUAAACAGACCUCAGGCCCGAAGCGUGGCGGCACCUGCCGCCGGUGGUAAAAAAGAUCGGAAGAGCACACGUCU | 1.21 |
| GGGUCGUCGGCGCAUAAUCGCGUGGAUAUGGCACGCAAGUUUCUACCGGGCACCGUAAAUGUCCGACUGGAGCCGUUCGGGCGGCUAUAAACAGACCUCAGGCCCGAAGCGUGGCGGCACCUGCCGCCGGUGGUAAAAAAGAUCGGAAGAGCACACGUCU | 1.78 |
| GGGUCGUCGGGACAUAAUCGCGUGGAUAUGGCACGCAAGUUUCUACCGGGCACCGUAAAUGUCCGACUGGAGCCGUUCGGGCGGCUAUAAACAGACCUCAGGCCCGAAGCGUGGCGGCACCUGCCGCCGGUGGUAAAAAAGAUCGGAAGAGCACACGUCU | 1.18 |
| GGGUCGUCGGCCGAUAAUCGCGUGGAUAUGGCACGCAAGUUUCUACCGGGCACCGUAAAUGUCCGACUGGAGCCGUUCGGGCGGCUAUAAACAGACCUCAGGCCCGAAGCGUGGCGGCACCUGCCGCCGGUGGUAAAAAAGAUCGGAAGAGCACACGUCU | 1.07 |
| GGGUCGUCGGCCUAUAAUCGCGUGGAUAUGGCACGCAAGUUUCUACCGGGCACCGUAAAUGUCCGACUGGAGCCGUUCGGGCGGCUAUAAACAGACCUCAGGCCCGAAGCGUGGCGGCACCUGCCGCCGGUGGUAAAAAAGAUCGGAAGAGCACACGUCU | 1.04 |
| GGGUCGUCGGCCAAUAAUCGCGUGGAUAUGGCACGCAAGUUUCUACCGGGCACCGUAAAUGUCCGACUGGAGCCGUUCGGGCGGCUAUAAACAGACCUCAGGCCCGAAGCGUGGCGGCACCUGCCGCCGGUGGUAAAAAAGAUCGGAAGAGCACACGUCU | 1.05 |
| GGGUCGUCGGGCCAUAAUCGCGUGGAUAUGGCACGCAAGUUUCUACCGGGCACCGUAAAUGUCCGACUGGAGCCGUUCGGGCGGCUAUAAACAGACCUCAGGCCCGAAGCGUGGCGGCACCUGCCGCCGGUGGUAAAAAAGAUCGGAAGAGCACACGUCU | 1.26 |

Source: the RNAGym collection of RNA variant scans (doi:10.1021/acssynbio.7b00057)
